According to US20220119492A1 (MEDIKINE, published 2022):

B1: IL-2Rγc ligand SEQ ID NO: 224 (peptide)
peptide: DCSMWEGVELCW
notes: Used as synthetic peptide and as phage clone; also called family 1B
B2: IL-2Rγc ligand SEQ ID NO: 266 (peptide)
peptide: CPSMLQGPERTWVC
notes: Used as phage clone; also called family 4
B3: IL-2Rγc ligand SEQ ID NO: 198 (peptide)
peptide: KVCEMWGGVLLCWN
notes: Used as phage clone; also called family 1A
B4: IL-2Rγc ligand SEQ ID NO: 236 (peptide)
peptide: MCWLEWGEWVGSCL
notes: Used as synthetic peptide and as phage clone; also called family 2
B5: IL-2Rγc ligand SEQ ID NO: 248 (peptide)
peptide: DLSDLSTFWLSQ
notes: Used as synthetic peptide and as phage clone; also called family 3
B6: IL-2Rγc ligand SEQ ID NO: 1032 (peptide)
peptide: SLLKCYNASTCASVF
notes: Used as synthetic peptide and as phage clone; also called family 5
B7: IL-2Rβ ligand SEQ ID NO: 1034 (peptide)
peptide: CGMAIGDLCMWT
notes: Used as phage clone; also called family 2C
B8: IL-2Rβ ligand SEQ ID NO: 58 (peptide)
peptide: YDCRIAQVGELCDL
notes: Used as synthetic peptide and as phage clone; also called family 1
B9: IL-2Rβ ligand SEQ ID NO: 1044 (peptide)
peptide: RSCYYKRPRLWCSE
notes: Used as synthetic peptide and as phage clone; also called family 4
B10: IL-2Rβ ligand SEQ ID NO: 170 (peptide)
peptide: QICDVGQWWPDCQV
notes: Used as phage clone; also called family 2A

What follows are binders tested against T1, human IL-2Rγc (CD132 protein, Fc Tag) (23-254) (human, UniProt P31785 23-254) (assay: competitive binding ELISA (Example 28)).
T1 construct: range 23-254; Bought protein; also called hu-IL-2Rγc subunit; IL-2Rγc subunit; not shown: Fc tag of the bought protein
T1 sequence (looked up): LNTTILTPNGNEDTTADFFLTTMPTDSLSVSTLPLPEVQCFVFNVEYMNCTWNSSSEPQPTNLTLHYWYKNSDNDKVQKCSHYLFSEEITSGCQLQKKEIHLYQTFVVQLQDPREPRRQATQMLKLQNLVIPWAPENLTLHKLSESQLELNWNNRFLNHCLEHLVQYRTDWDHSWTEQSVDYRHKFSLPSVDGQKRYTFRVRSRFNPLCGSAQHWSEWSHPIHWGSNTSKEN
Procedure: (§1) In this example, IL-2R ligands were diluted to 2-times final assay concentration in PBT (1×PBS pH 7.2, 0.5% Bovine Serum Albumin, 0.05% Tween®20) and serially diluted. Fifty (50) μL was added to the appropriate wells. The plates were then incubated at 4° C. for 1 hr.
(§2) Without washing, fifty (50) μL of representative phage were added to the assay wells (phage tracer). The plates were then incubated at 4° C. for 45 min.
With B1 the IC50 was < 10 µM.
For B2, the IC50 was < 10 µM.
For B3, the IC50 was < 10 µM.
With B4 the IC50 was < 10 µM.
In the case of RTCTEWENVVLCWV (also called family 1A) [IL-2Rγc ligand SEQ ID NO: 202], the IC50 is reported as < 10 µM.
B5 was tested, and the IC50 was < 10 µM.
For B6, the IC50 was < 10 µM.

What follows are binders tested against T2, human IL-2Rβ (CD122 protein, Fc Tag) (27-239) (human, UniProt P14784 27-239) (assay: competitive binding ELISA (Example 28)).
T2 construct: range 27-239; Bought protein; also called hu-IL-2Rβ subunit; IL-2Rβ subunit; not shown: Fc tag of the bought protein
T2 sequence (looked up): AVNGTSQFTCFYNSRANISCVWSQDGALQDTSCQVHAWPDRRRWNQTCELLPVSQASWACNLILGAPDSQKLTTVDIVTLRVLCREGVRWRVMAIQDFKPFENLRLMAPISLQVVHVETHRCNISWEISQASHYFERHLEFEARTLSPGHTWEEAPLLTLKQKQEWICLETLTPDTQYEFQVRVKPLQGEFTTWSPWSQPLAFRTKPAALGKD
Procedure: as §1, §2
B7 was tested, and the IC50 was < 10 µM.
In the case of B8, the IC50 is reported as < 10 µM.
With RWGDVGDLLMPL (also called family 2C) [IL-2Rβ ligand SEQ ID NO: 1042] the IC50 was < 10 µM.
In the case of NMCLVGDYWPSCQI (also called family 2A) [IL-2Rβ ligand SEQ ID NO: 169], the IC50 is reported as < 10 µM.
B9 was tested, and the IC50 was < 10 µM.
B10 was tested, and the IC50 was < 10 µM.
